Results from patent publication US5837499A, “DNA encoding C5A receptor antagonists having substantially no agonist activity and methods of expressing same” (priority 1995, dated 1998).
Numbering of substitutions follows the chain as printed. In names and notes the source's numbering stands. Blank lines part the entries; values can stand above or below the molecule they belong to. Where a SMILES comes first, the peptide text is derived from it.

Assays:
[1] = molecular target: T1, C5a receptor (Homo sapiens, UniProt P21730); experiment: C5a induced Ca++ rise in fura-2 loaded neutrophils (antagonist IC50 / agonist EC50); type: cell-based; conditions: for Concentration up to which tested and agonist activity not detected (calcium rise): highest concentration tested, agonist activity was not detected
T1 construct: Neutrophils were purified from human peripheral blood; endogenous in cells; host or cells: neutrophils from human peripheral blood
T1 sequence (P21730 1-350): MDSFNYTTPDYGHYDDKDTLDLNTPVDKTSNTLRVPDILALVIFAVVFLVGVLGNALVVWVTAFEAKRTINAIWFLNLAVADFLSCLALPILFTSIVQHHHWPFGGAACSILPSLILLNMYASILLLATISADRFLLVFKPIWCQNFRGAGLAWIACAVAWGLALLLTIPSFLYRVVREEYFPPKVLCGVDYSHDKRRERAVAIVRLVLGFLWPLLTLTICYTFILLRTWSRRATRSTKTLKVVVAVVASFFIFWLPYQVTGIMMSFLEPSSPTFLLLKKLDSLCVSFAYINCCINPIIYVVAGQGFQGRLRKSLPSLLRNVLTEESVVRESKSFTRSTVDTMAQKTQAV
Description: The antagonism of the instant C5a analogues may be quantified as an IC50 in the calcium rise assay disclosed in Agents and Actions 21:375-378 (1987), described in detail in Example 7.
See Hugli et al., CRC Crit. Rev. Immunol. 1:321-326 (1981) and PCT WO 92/10205. A quantitative measure of this property may also be obtained using the calcium rise assay disclosed in Seligmann et al., supra, also described in Example 7. EC50 is a measure of agonistic activity. […] Applicants have not detected agonist activity of the instant C5a analogues up to a concentration of at Least about 8.0×10^-7 M, and preferably at least about 3.0×10^-6 M in the same calcium rise assay.
Recombinant human C5a was dissolved in Hanks buffer containing 0.01% Tween-20, and all stock dilutions of C5a were made in this buffer. The acetoxymethyl ester of fura-2 (fura 2AM, Molecular Probes) was dissolved in DMSO. Neutrophils were purified from human peripheral blood by sedimentation in 6% hetastarch (HESPAN, DuPont, Waukegan, Ill.), followed by counter flow elutriation as described in Chapman-Kirkland et al., J. Immunol. Meth. 142:95-104 (1991). Purified cells (2×10^6 /ml) were mixed with 0.2 uM fura- 2AM and incubated for 30 min at 37° C. in HEPES buffered Hanks solution without calcium or magnesium. Fifteen minutes before the assay, the cell suspension was transferred to a curvette containing a stir bar and calcium was added to 1 mM. The cell suspension was incubated with stirring at 37° C. Assays were terminated within 5 h of cell purification and a standard control response was obtained periodically to insure that the cell responses were not changing over the time of the experiment. The amount of fluorescence was determined using an SLM 8000 spectrofluorometer (SLM-Aminco Instruments, Urbana, Ill.). Curvettes were placed in the fluorometer and after obtaining a baseline for 10 sec, the C5a receptor antagonists to be tested for antagonistic properties were added and any change in fluoresence excitation ratio of 340 nm/380 nm (emission of 510 nm) was measured. Forty seconds after analogue addition, a challenge dose of C5a was added to a final concentration of 100 pM and the resulting change in excitation ratio was measured.
IC50 values were used as a measure of antagonist potency. These values are defined as the concentration of C5a analogue needed to reduce the calcium rise response of the 100 pM C5a challenge dose by 50%. EC50 values were used as a measure of agonist potency. […]

[2] = molecular target: T1, C5a receptor; experiment: Receptor binding assay: displacement of [125I]Bolton-Hunter-labelled C5a from PMNL membranes; conditions: Table 4, [125I]BH-C5a 4.0 pM, 120 min at 4° C., Cheng-Prusoff
Protocol: C5a and C5a receptor antagonists were tested for their affinity for the C5a receptor. […] PMNLs were resuspended in Hanks balanced salt solution, without Ca^++ and Mg^++ and which contained 10 mM HEPES; at pH 7.3, 2.5 mM MgCl2, 100 units/ml DNAse I, 0.1 mM PMISF, 10 μg/ml aprotonin and 10 μg/ml leupeptin. They were then equilibrated at 400 psi for 20 min at 4° C. in a nitrogen cavitation bomb. After evacuation into 3 volumes 0.5 M KHCO3 containing 25 mM EDTA and the protease inhibitors listed above, the gelatinous material was removed with forceps and the mixture was centrifuged at 400×g for 10 min at 4° C. The resulting supernatant was centrifuged at 50,000×g for 60 min at 4° C. The pellets from the aliquots representing 200×10^6 cells were stored at -70° C. For binding studies, these membranes were resuspended at an equivalent of 20×10^6 cells/ml in 50 mM HEPES at pH 7.3, containing 1 mM CaCl2, 5 mM MgCl2, 0.1 mM PMSF, 0.1% bacitracin and 0.5% BSA.
Nonspecific binding was determined in the presence of 10 nM unlabelled C5a. The binding reaction was initiated by the addition of the PMNL membranes and was continued for 120 min at 4° C. Bound and free radioactivity were separated by vacuum filtration through GF/C glass fiber filters (Whatman), pretreated for 90 min with 0.05% PEI (polyethyleneimine) using a Cell Harvester (Brandel, Gaithersburg, Md.). Filters were washed with 3×5 ml of ice-cold 5 mM Tris buffer at pH 7.4 and counted in a multiwell Gamma counter (Genesys). Data were analyzed using the non-linear regression analysis program, RS/1 (Bolt, Beranek and Newman, Boston) and expressed as IC50 values. The results are set forth below in Table 4 as Ki values using the Cheng-Presoff equation. See Braunwalder et al., supra

[3] = system: New Zealand White rabbits (C5a-induced neutropenia); experiment: C5a-induced neutropenia in the rabbit; type: in vivo; conditions: i.v. bolus; for Inhibition of C5a-induced neutropenia vs vehicle-treated rabbits: 100 ng C5a i.v.
Protocol: All experiments were performed on male New Zealand White rabbits weighing 2.5-3.0 kg. Rabbits were anesthetized with 10 mg/kg xylazine and 50 mg/kg ketamine administered in combination intramuscularly. A 25 gauge butterfly catheter was inserted in the lateral ear vein to use for infusions. Each blood sample (0.2 ml) was collected from the central ear artery into a plastic syringe fitted with a 25 gauge, 5/8 inch needle and charged with 7.5% EDTA as an anticoagulant. Blood was immediately expressed into a microcentrifuge tubes containing 10 microliters of 7.5% EDTA. An initial arterial blood sample (#1) was obtained and immediately thereafter vehicle or the C5a analogue of Example 8 was infused intravenously (bolus injection). Twenty seconds later, a second blood sample (#2) was obtained and twenty seconds thereafter 100 ng of C5a in 0.2 ml were infused intravenously (bolus injection). Twenty seconds later, a third blood (#3) sample was taken. Thirty minutes later, a second round of blood sample (#4)--20 seconds--C5a infusion--20 seconds--blood sample (#5) was performed. Blood samples were evaluated by automated hematologic analysis (Technicon H*1) using software specific for rabbit blood. Reductions in neutrophil counts (number per milliliter) induced by C5a(C5a-induced neutropenia, determined by comparing blood sample #3 to #2 and #5 to #4) were compared between vehicle-treated and C5a analogue-treated animals.

[4] = system: New Zealand White rabbits (C5a-induced enhancement in vascular permeability); experiment: Rabbit dermal model of inflammation ([125I]-BSA exudation after intradermal C5a); type: in vivo
Protocol: All experiments were performed on male New Zealand White rabbits weighing 2.5-3.0 kg. The backs; of the rabbits were shaved and 40-50 skin sites were designated with markers of different colors. Different stimuli (i.e., C5a, C5a analogue, C5a+C5a analogue, vehicle control, etc.) were injected intradermally at 0.1 ml/site using a sterile, disposable, 26 gauge, 0.5 in. needle and 1.0 cc tuberculin syringe. I.D. injections were administered in replicates of six, roughly 45 minutes before euthanization. C5a alone was injected at a dose of 50 ng/site, and the C5a receptor antagonists were co-injected at various concentrations with the same dose of C5a. At 20 minutes prior to euthanization, 18-36 uCi of [125I]-labeled bovine serum albumin in 1.0 ml physiological saline were introduced into the systemic circulation via the marginal auricular vein. At 45 minutes, the rabbit was euthanized with an I.V. overdose of sodium pentobarbital. […]
After death, the dorsal skin was excised and pinned to a wooden dissecting board. […] This procedure reduced variation among skin sites and decreased background radioactivity. […] Injection sites were then analyzed for their radioactive content using a Gamma Counter (Genesys).

Agonist / antagonist character ([1]; result in words): significant agonist activity
Molecule: CC[C@H](C)[C@H](N)C(=O)N[C@@H](CO)C(=O)N[C@@H](Cc1ccccc1)C(=O)N[C@@H](CCCCN)C(=O)N[C@@H](CC(=O)O)C(=O)N[C@@H](CCSC)C(=O)N[C@@H](CCC(N)=O)C(=O)N[C@@H](CC(C)C)C(=O)NCC(=O)N[C@@H](CCCNC(=N)N)C(=O)O [Decapeptide, reference compound] (H-ISFKDMQLGR-OH)

Ki [2]: 0.9 nM
Concentration up to which tested and agonist activity not detected (calcium rise) [1]: > 1500 nM
B1: C5a(1-72,T1M,C27S,L72C) (protein, UniProt P01031 678-749, looked up, fragment T1M C27S L72C)
chain: MLQKKIEEIAAKYKHSVVKKCCYDGASVNNDETCEQRAARISLGPRCIKAFTECCVVASQLRANISHKDMQC
modifications: C5a anaphylatoxin

Ki [2]: 0.2 nM
Concentration up to which tested and agonist activity not detected (calcium rise) [1]: > 3000 nM
B2: C5a(1-71,T1M,C27S,Q71C) (protein, UniProt P01031 678-748, looked up, fragment T1M C27S Q71C)
chain: MLQKKIEEIAAKYKHSVVKKCCYDGASVNNDETCEQRAARISLGPRCIKAFTECCVVASQLRANISHKDMC
modifications: C5a anaphylatoxin
Inhibition of C5a-induced neutropenia vs vehicle-treated rabbits ([3]; 30-minute C5a challenge interval): 41%
Inhibition of C5a-induced neutropenia vs vehicle-treated rabbits ([3]; 40-second C5a challenge interval): 67%
Effect on baseline neutrophil counts (agonistic, C5a-like properties) ([3]; before C5a challenge): did not alter baseline neutrophil counts from normal
ID50 (50% reduction in the radioactivity produced by C5a) ([4]; intradermal co-injection with 50 ng C5a/site): 70 ng/site
Pro-inflammatory reaction (agonist properties in vivo) ([4]; intradermal, 175 ng/site): did not cause a pro- inflammatory reaction

Ki [2]: 0.04 nM
B3: Analogue 22: dimeric form of analogue No. 8, disulfide linked through the C-terminal cysteines (protein, UniProt P01031 678-748, looked up, fragment T1M C27S Q71C)
chain: B2 chain
modifications: C5a anaphylatoxin disulfide-linked dimer
notes: dimeric form of analogue No. 8, disulfide linked through the C-terminal cysteines

Ki [2]: 0.1 nM
Concentration up to which tested and agonist activity not detected (calcium rise) [1]: > 800 nM
B4: C5a(1-71,T1M,C27S,H67F,Q71C) (protein, UniProt P01031 678-748, looked up, fragment T1M C27S H67F Q71C)
chain: B2 chain with H67F
modifications: C5a anaphylatoxin

Ki [2]: 0.15 nM
B5: C5a(1-71,T1M,C27S,Q71H) (protein, UniProt P01031 678-748, looked up, fragment T1M C27S Q71H)
chain: B2 chain with C71H
modifications: C5a anaphylatoxin
notes: comparison agonist

Ki [2]: 7.5 nM
B6: C5a(1-71,T1M,C27S,Q71S) (protein, UniProt P01031 678-748, looked up, fragment T1M C27S Q71S)
chain: B2 chain with C71S
modifications: C5a anaphylatoxin
notes: comparison agonist

Ki [2]: 0.035 nM
B7: C5a(1-71,T1M,C27S,Q71L) (protein, UniProt P01031 678-748, looked up, fragment T1M C27S Q71L)
chain: B2 chain with C71L
modifications: C5a anaphylatoxin
notes: comparison agonist

Ki [2]: 8.5 nM
B8: C5a(1-71,T1M,C27S,Q71D) (protein, UniProt P01031 678-748, looked up, fragment T1M C27S Q71D)
chain: B2 chain with C71D
modifications: C5a anaphylatoxin
notes: comparison agonist

Ki [2]: 3 nM
B9: C5a(1-71,T1M,C27S) (protein, UniProt P01031 678-748, looked up, fragment T1M C27S)
chain: B2 chain with C71Q
modifications: C5a anaphylatoxin
notes: comparison agonist

Ki [2]: 0.35 nM
B10: C5a(1-71,T1M,C27S,Q71R) (protein, UniProt P01031 678-748, looked up, fragment T1M C27S Q71R)
chain: B2 chain with C71R
modifications: C5a anaphylatoxin
notes: comparison agonist

Concentration up to which tested and agonist activity not detected (calcium rise) [1]: > 1000 nM
B11: C5a(1-70,T1M,C27S,M70C) (protein, UniProt P01031 678-747, looked up, fragment T1M C27S M70C)
chain: MLQKKIEEIAAKYKHSVVKKCCYDGASVNNDETCEQRAARISLGPRCIKAFTECCVVASQLRANISHKDC
modifications: C5a anaphylatoxin
